The record followed here is paper PMC7835958, “Unlike its Paralog LEDGF/p75, HRP-2 Is Dispensable for MLL-R Leukemogenesis but Important for Leukemic Cell Survival” (Cells, 2021).

Common to all, as to conditions: both partners purified
One test has as its target T1, HRP-2_(469–549) (human, UniProt Q7Z4V5 469-549, 15N-labeled).
T1 construct: also called HRP-2-IBD; HRP-2 IBD; source: E. coli Rosetta2 (DE3), purified
T1 sequence (looked up): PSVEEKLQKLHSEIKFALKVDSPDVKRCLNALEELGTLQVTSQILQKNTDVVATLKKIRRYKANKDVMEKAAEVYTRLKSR
In words: NMR titration; 20 µM 15N-labeled IBD (HRP-2 469–549 or LEDGF/p75 345–426) mixed with various concentrations of unlabeled synthetic MLL peptide (123–160); 15N/1H HSQC (SOFAST), 25 °C; KD from chemical shift perturbations.

The target of another test is T2, LEDGF/p75_(345–426) (human, UniProt O75475 345-426, 15N-labeled).
T2 construct: also called LEDGF/p75-IBD; LEDGF/p75 IBD; source: E. coli Rosetta2 (DE3), purified
T2 sequence (looked up): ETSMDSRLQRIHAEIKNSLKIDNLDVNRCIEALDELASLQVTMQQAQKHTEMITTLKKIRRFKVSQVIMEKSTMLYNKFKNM
The test is described as above.

Test [1] addresses T3, Full length flag-tagged LEDGF/p75 (human, UniProt O75475 1-530).
T3 construct: LEDGF/p75, full length; also called Flag-LEDGF/p75; flag-LEDGF/p75; source: E. coli Rosetta2 (DE3), purified
In words: AlphaScreen or HTRF; out-competition: Flag-LEDGF/p75 (0.3 nM) preincubated with MLL_(1–160)–GST (10 nM) before titration of MBP-LEDGF/p75_(325–530), MBP-HRP-2_(470–552) or MBP alone.

The next test addresses T4, MBP-LEDGF/p75_(325–530) (human, UniProt O75475 325-530).
T4 construct: LEDGF/p75 C-terminal fragment, residues 325-530; also called LEDGF_(325–530); MBP-fused C-terminal fragment of LEDGF/p75; source: E. coli Rosetta2 (DE3), purified
T4 sequence (looked up): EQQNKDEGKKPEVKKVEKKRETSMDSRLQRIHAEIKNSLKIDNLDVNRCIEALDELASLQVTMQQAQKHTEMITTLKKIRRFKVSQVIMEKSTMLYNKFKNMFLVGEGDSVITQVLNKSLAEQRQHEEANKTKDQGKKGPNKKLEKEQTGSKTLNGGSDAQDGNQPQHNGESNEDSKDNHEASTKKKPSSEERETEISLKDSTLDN
The test is described as above.

B1: synthetic MLL peptide (123–160) (peptide, UniProt Q03164 123-160, looked up)
peptide: GTNLRRFRAVFGESGGGGGSGEDEQFLGFGSDEEVRVR
notes: also called MLL-derived peptide; source: synthetic peptide
What is called Kd is the equilibrium constant for the complex coming apart. As to B1, in the test with HRP-2_(469–549), the Kd was determined as 54.4 ± 2.2 µM. In addition, the binding result with LEDGF/p75_(345–426) is “binds”.

B2: MLL_(1–160)–GST (domain or fragment, UniProt Q03164 1-160, looked up)
chain: MAHSCRWRFPARPGTTGGGGGGGRRGLGGAPRQRVPALLLPPGPPVGGGGPGAPPSPPAVAAAAAAAGSSGAGVPGGAAAASAASSSSASSSSSSSSSASSGPALLRVGPGFDAALQVSAAIGTNLRRFRAVFGESGGGGGSGEDEQFLGFGSDEEVRVR
notes: MLL (MLL1, KMT2A) N-terminal fragment, residues 1-160; The printed name MLL_(1–160)–GST hints at a C-terminal GST; also called GST-tagged MLL_(1–160); GST-tagged N-terminal fragment of MLL; source: E. coli Rosetta2 (DE3), purified
B2: the binding result (in test [1]; with MBP-LEDGF/p75_(325–530)) was “binds” each time.
